In patent US20230137139A1, “BIOSYNTHESIS OF CANNABINOIDS AND C[…]” (priority 2020, published 2023):
Residue numbers refer to the chain shown, from its start.

B1: Strain t808200: library TS SEQ ID NO: 164, UniProt A0A3F3PQ52, Aspergillus welwitschiae (protein)
chain: MGNTTSIAGRDCLISALGGNSALAAFPNELLWTADVHEYNLNLPVTPAAITYPETAEQIAGIVKCASDYDYKVQARSGGHSFGNYGLGGADGAVVVDMKHFTQFSMDDETYEAVIGPGTTLNDVDIELYNNGKRAMAHGVCPTIKTGGHFTIGGLGPTARQWGLALDHVEEVEVVLANSSIVRASNTQNQDVFFAVKGAAANFGIVTEFKVRTEPAPGLAVQYSYTFNLGSTAEKAQFVKDWQSFISAKNLTRQFYNNMVIFDGDIILEGLFFGSKEQYDALGLEDHFAPKNPGNILVLTDWLGMVGHALEDTILKLVGNTPTWFYAKSLGFRQDTLIPSAGIDEFFEYIANHTAGTPAWFVTLSLEGGAINDIAEDATAYAHRDVLFWVQLFMVNPLGPISDTTYEFTDGLYDVLARAVPESVGHAYLGCPDPRMEDAQQKYWRTNLPRLQELKEELDPKNTFHHPQGVMPA
B2: t865740 (protein)
chain: B1 chain with A25V, E57A, I62V, N122E, I374V, L398V
B3: t865772 (protein)
chain: B1 chain with A25V, D35A, E57A, I62V, I374V, L398V
modifications: expressed in S. cerevisiae strain
B4: t865731 (protein)
chain: B1 chain with E57A, I62V, I374V, L398V
B5: t865727 (protein)
chain: B1 chain with A25V, E57A, I62V, H353A, I374V, L398V
B6: t808237 (protein)
chain: MGNTTSIAGRDCLVSALGGNAGLVAFQDQLLYQTTAVHEYNLNIPVTPAAVTYPETAEQIAAVVKCASEYDYKVQARSGGHSFGNYGLGGADGAVVVDMKHFSQFSMDDQTYEAVIGPGTTLGDVDTELYNNGKRAMAHGICPTISTGGHFTMGGLGPTARQWGLALDHVEEVEVVLANSSIVRASNTQNQEVFFAVKGAAASFGIVTEFKVRTQPAPGLAVQYSYTFNIGSSAEKAQFVKDWQSFISAKNLTRQFYTNMVIFDGDIILEGLFFGSQEQYEALGLEDRFVPKNPGNILVLTDWLGMVGHALEDTILRLVGNTPTWFYAKSLGFTPDTLIPASGIDEFFDYIENHKAGTLTWFVTLSLEGGAINDVPEDATAYGHRDVLFWVQIFMASPTGPVSSTTYDFADGLYNVLTKAVPESEGHAYLGCPDPKMADAQQKYWRQNLPRLEELKATLDPKDTFHNPQGILPA
B7: t808232 (protein)
chain: MGNTTSIAAGRDCLLSAVGGNHAHVAFQDQLLYQATAVEPYNLNIPVTPAAVTYPQSADEVAAVVKCAADYGYKVQARSGGHSFGNYGLGGEDGAIVVDMKHFDQFSMDESTYTATIGPGITLGDLDTALYNAGHRAMAHGICPTIRTGGHLTIGGLGPTARQWGLALDHVEEVEVVLANSSIVRASDTQNQEILFAVKGAAASFGIVTEFKVRTEEAPGLAVQYSFTFNLGTAAEKAKLVKDWQAFIAQEDLTWKFYSNMNIIDGQIILEGIYFGSKAEYDALGLEEKFPTSEPGTVLVLTDWLGMVGHGLEDVILRLVGNAPTWFYAKSLGFAPRALIPDSAIDDFFEYIHKNNPGTVSWFVTLSLEGGAINKVPEDATAYGHRDVLFWVQIFMINPLGPVSQTIYDFADGLYDVLAKAVPESAGHAYLGCPDPRMPNAQQAYWRNNLPRLEELKGDLDPKDIFHNPQGVMVVS

Legend:
Type in all cases: cell-based, S. cerevisiae
[1] = tested on: CBCA, THCA, and CBDA production; CBGA residual substrate; test: In vivo TS activity assay, Example 3 metagenomic CBCAS screen, cultures fed olivetolic acid; conditions: for Mean CBCA / Mean CBDA / Mean THCA: metagenomic CBCAS candidates in S. cerevisiae, secondary screen, quadruplicate; for Mean CBCA / Mean CBDA / Mean THCA / % CBCA / % CBDA / % THCA: fed 1 mM olivetolic acid; for Average CBGA residual substrate: olivetolic acid fed (Table 12); for % CBCA / % CBDA / % THCA: share of terminal cannabinoid product profile
Protocol: (§1) An assay to detect TS activity was conducted as follows: each thawed glycerol stock of candidate CBCAS transformants was stamped into a well of YEP+4% dextrose media. Samples were incubated at 30° C. in a shaking incubator for 2 days. A portion of each of the resulting cultures was stamped into a well of YEP+4% galactose+1 mM olivetolic acid (FIG. 1 Structure 6a). Samples were incubated at 20° C. and shaken in a shaking incubator for 4 days. Every 24 hours during those 4 days, 2% galactose and 1 mM olivetolic acid were spiked into the cultures. Sodium citrate buffer adjusted to pH 5.5 was added to each well at a final concentration of 100 mM. Samples were incubated at 20° C. and shaken in a shaking incubator for 2 days. A portion of each of the resulting production cultures was stamped into a well of phosphate buffered saline (PBS). Optical measurements were taken on a plate reader, with absorbance measured at 600 nm and fluorescence at 528 nm with 485 nm excitation. Samples were incubated at 30° C. in a shaking incubator for 2 days. 100% methanol was stamped into the production cultures in half-height deepwell plates. Plates were heat sealed and frozen. Samples were then thawed for 30 min and spun down at 4° C. A portion of the supernatant was stamped into half-area 96 well plates. CBCA, THCA, and CBDA production in the samples was quantified via liquid chromatography-mass spectrometry (LC-MS).
(§2) To explore whether other putative CBCASs may exist in the broader metagenome, a library of 1072 candidate CBCAS genes was designed using the A. niger CBCAS enzyme identified in Example 1 as a reference. Protein sequences were recoded in silico for expression in S. cerevisiae and synthesized in the integrative yeast expression vector shown in FIG. 5. Each candidate enzyme expression construct was transformed into an S. cerevisiae CEN.PK strain that also expressed a prenyltransferase enzyme capable of catalyzing reaction R^4 in FIG. 2. Strain t616313, expressing GFP, was included in the library screen as a negative control for enzyme activity. Strain t807925, expressing the A. niger enzyme identified in Example 1, was included in the library screen as a positive control for enzyme activity. All candidate enzymes in the library, as well as the enzyme expressed by positive control strain t807925, included an N-terminal MFalpha2 signal peptide (SEQ ID NO: 16) (with a methionine residue added at the N-terminus of the MFalpha2 signal peptide) and a C-terminal HDEL signal peptide (SEQ ID NO: 17).
The library of candidate CBCAS enzymes was assayed for activity in a primary high-throughput screen using the assay described in Example 1. Production of CBCA, THCA, and/or CBDA in the samples was quantified via LC-MS.
(§3) Based on results of the primary screen, 70 strains were carried forward to a secondary screen to confirm activity observed in the primary screen. The experimental protocol for the secondary screen was identical to the primary screen, except that additional technical replicates were included per strain, and replicate production cultures for each strain were separately fed 1 mM olivetolic acid or 1 mM divaric acid. All strains were screened in quadruplicate (FIGS. 10A-10C, Tables 10 and 11).

[2] = tested on: CBCVA, THCVA, and CBDVA production; test: In vivo TS activity assay, Example 2 protein engineering of A. niger CBCAS, cultures fed divaric acid; conditions: fed divaric acid; for Mean CBCVA / Mean CBDVA / Mean THCVA: S. cerevisiae strains expressing A. niger CBCAS mutants, secondary screen; for % CBCVA / % CBDVA / % THCVA: share of terminal cannabinoid product profile
In short: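 Quantification by LC-MS of methanol-extracted production cultures, strains in quadruplicate. Yeast carrying mutant A. niger CBCAS (MFalpha2 N-terminal and HDEL C-terminal signal peptides) were induced 4 days at 20 °C in YEP+4% galactose fed 1 mM divaric acid, re-dosed every 24 h with 2% galactose and 1 mM divaric acid, after 2 days of dextrose preculture at 30 °C; 100 mM citrate pH 5.5 was then added for 2 more days.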

[3] = tested on: CBCA, THCA, and CBDA production; test: In vivo TS activity assay, Example 2 protein engineering of A. niger CBCAS, cultures fed olivetolic acid; conditions: for Mean CBCA / Mean CBDA / Mean THCA: secondary screen, olivetolic acid (Table 8); for % CBCA / % CBDA / % THCA: share of terminal cannabinoid product profile
In short: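 CBCA, THCA and CBDA were measured by LC-MS in methanol extracts of yeast cultures expressing mutant A. niger CBCAS. Cultures were induced at 20 °C with galactose and fed 1 mM olivetolic acid daily for 4 days, then buffered with 100 mM sodium citrate pH 5.5. Secondary screen: quadruplicates fed 1 mM olivetolic or divaric acid.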

[4] = tested on: CBCVA, THCVA, and CBDVA production; CBGVA residual substrate; test: In vivo TS activity assay, Example 3 metagenomic CBCAS screen, cultures fed divaric acid; conditions: for Average CBGVA residual substrate: divaric acid fed (Table 12); for Mean CBCVA / Mean CBDVA / Mean THCVA: secondary screen, S. cerevisiae, quadruplicate, LC-MS; for Mean CBCVA / Mean CBDVA / Mean THCVA / % CBCVA / % CBDVA / % THCVA: cultures fed 1 mM divaric acid; for % CBCVA / % CBDVA / % THCVA: share of terminal cannabinoid products
Protocol: as §1, §2, §3

Molecule	Mean CBCVA [2]	Mean CBDVA [2]	Mean THCVA [2]	% CBCVA [2]	% CBDVA [2]	% THCVA [2]	Mean CBCA [3]	Mean CBDA [3]	Mean THCA [3]	% CBCA [3]	% CBDA [3]	% THCA [3]	other results
B1	–	–	–	–	–	–	–	–	–	–	–	–	percentage of CBCA in product profile compared with the A. niger positive control [1]: higher percentage of CBCA
B2	1153.83 µg/L	0.00 µg/L	469.98 µg/L	71.06%	0.00%	28.94%	11837.41 µg/L	3671.56 µg/L	685.53 µg/L	73.10%	22.67%	4.23%	–
B3	1441.55 µg/L	0.00 µg/L	702.24 µg/L	67.24%	0.00%	32.76%	9992.22 µg/L	3051.02 µg/L	622.72 µg/L	73.12%	22.33%	4.56%	–
B4	1605.94 µg/L	0.00 µg/L	885.33 µg/L	64.46%	0.00%	35.54%	16059.53 µg/L	4006.74 µg/L	971.80 µg/L	76.34%	19.05%	4.62%	–
B5	1829.32 µg/L	0.00 µg/L	981.31 µg/L	65.09%	0.00%	34.91%	16276.39 µg/L	4297.38 µg/L	1177.87 µg/L	74.83%	19.76%	5.42%	–
B6	–	–	–	–	–	–	–	–	–	–	–	–	Mean CBCA [1]: 12281.96 µg/L; Mean CBDA [1]: 37.34 µg/L; Mean THCA [1]: 760.03 µg/L; Average CBGA residual substrate [1]: 69.20 µg/L; % CBCA [1]: 93.90%; % CBDA [1]: 0.29%; % THCA [1]: 5.81%; Average CBGVA residual substrate [4]: 0.00 µg/L; Mean CBCVA [4]: 3599.07 µg/L; Mean CBDVA [4]: 0.00 µg/L; Mean THCVA [4]: 1273.10 µg/L; % CBCVA [4]: 73.87%; % CBDVA [4]: 0.00%; % THCVA [4]: 26.13%
B7	–	–	–	–	–	–	–	–	–	–	–	–	Mean CBCA [1]: 20281.01 µg/L; Mean CBDA [1]: 64.49 µg/L; Mean THCA [1]: 1367.99 µg/L; Average CBGA residual substrate [1]: 0.00 µg/L; % CBCA [1]: 93.40%; % CBDA [1]: 0.30%; % THCA [1]: 6.30%; Average CBGVA residual substrate [4]: 0.00 µg/L; Mean CBCVA [4]: 2379.23 µg/L; Mean CBDVA [4]: 0.00 µg/L; Mean THCVA [4]: 1626.74 µg/L; % CBCVA [4]: 59.39%; % CBDVA [4]: 0.00%; % THCVA [4]: 40.61%
